Assay results from patent US7030099B2, “Tumor specific promoters of the midkine gene that allow for selective expression in P53-inactivated cells” (Research Corporation Technologies, Inc., priority 2000, dated 2006).

Experiments:
[1] = system: normal human fibroblasts HEF, MRC-5; test: Luciferase assay of c-erbB-2 promoter activity, normal fibroblasts; format: cell-based; conditions: FIG. 7B
Experimental: (§1) With the transcription initiation site of the c-erbB-2 gene as +1, DNA that corresponded to a genomic region (p533) from −435 to +38 and that had the sequence set forth in SEQ ID NO: 7 was amplified by the PCR method, and then the DNA fragment was integrated into the pGEM-TEasy (manufactured by Promega), and the sequences of the PCR product was determined. Thus, after inserting this PCR product into the SmaI site of pGL2-Basic (manufactured by Promega), it was cleaved with BlnI/SmaI, PstI/SmaI, and BssHII/SmaI using the restriction enzyme sites present on the c-erbB-2 genomic gene to construct plasmids in which the genomic regions of c-erbB-2, p344 (−306/+38) (DNA having the base sequence set forth in SEQ ID NO: 8), p251 (−213/+38) (DNA having the base sequence set forth in SEQ ID NO: 9) and p124 (−86/+38) (DNA having the base sequence set forth in SEQ ID NO: 10) are localized upstream of the Firefly luciferase gene, respectively. Using the plasmid pGL2-Control (manufactured by Promega) having the promoter of SV40 virus and the plasmid pGL2-Basic (manufactured by Promega) containing no promoters, gene introduction was performed in human breast cancer cells OCUBM, MCF7, BT549, normal human fibroblasts HEF, MRC-5, human malignant melanoma A875, and human lung cancer cells QG-56, all of which were cultured in DMEM (Sigma) supplemented with 10% bovine fetal serum. Firstly, after 10 μg each of these plasmids and lipofectin (Life Technologies) were mixed, it was allowed to stand at room temperature for 30 minutes to form a complex of DNA and lipid. Then the complex, after removing the bovine fetal serum therefrom, was contacted with the cells. Eight hours later culture medium supplemented with bovine fetal serum was added. After 48 hours-culture, the cells were disrupted using the Dual-Luciferase Reporter Assay System (manufactured by Promega), and the Firefly luciferase activity therein was determined using the reagents in the same kit. In order to normalize the efficiency of gene introduction, 1 μg of pRL-TK plasmid (manufactured by Promega) was included in each gene-introduced group, and the Renilla luciferase activity by the TK promoter was determined, based on which the Firefly luciferase activity was corrected.

[2] = system: breast cancer cells MCF7; test: In vitro sensitivity to GCV of promoter-TK gene-introduced cells; format: cell-based, human; conditions: GCV seven days, FIG. 8A
Experimental: (§2) In order to examine the cytotoxic effects using the p251 promoter, a suicide gene HSV-TK was ligated downstream of this promoter region (pro251-TK), this plasmid was expressed in cells, and a prodrug GCV was added to the culture of the gene-introduced cells. The measurement of cytotoxic effects by this system was carried out according to the method described in Moolten, Fla. Cancer Gene Ther., 1:279–287, 1994. Firstly, the cytomegalovirus (CMV) promoter of pcDNA3 (manufactured by Invitrogen) was removed using NruI and HindIII sites, into which the p251 promoter was inserted and then using the EcoRV site, the HSV-TK gene excised from pMK (Brinster, R L et al., Cell, 27:223–231, 1981) with BglI and EcoRI was inserted (pro251-TK). As a control, a pcDN3-derived plasmid (pro251) that contains no HSV-TK gene but has integrated the p251 promoter, and a pcDNA3-derived plasmid (CMV-TK) that has the HSV-TK gene and permits the expression of the HSV-TK gene were also used. Each of the plasmids ([…], pro251-TK, CMV-TK) was introduced using lipofectin into the breast cancer cells MCF7 or non-breast cancer cells A875. In order to utilize the expression of the Neo gene contained in pcDNA3 as a drug resistant marker, the transfected cells were cultured with 400 μg/ml of G418 (manufactured by Life Technologies) for ten days to establish the cells that express a respective gene. […]

[3] = system: non-breast cancer cells A875; test: as above; format: cell-based, human; conditions: GCV seven days, FIG. 8B
Experimental: as §2

[4] = system: human breast cancer cells OCUBM, MCF7, BT549; test: Luciferase assay of c-erbB-2 promoter activity, breast cancer cells; format: cell-based; conditions: FIG. 7A
Experimental: as §1, with “Then the complex, after removing the bovine fetal serum therefrom, was contacted with the cells. Eight hours later culture medium supplemented with bovine fetal serum was added.” left out

[5] = system: human malignant melanoma A875, human lung cancer cells QG-56; test: Luciferase assay of c-erbB-2 promoter activity, non-breast tumor cells; format: cell-based; conditions: human malignant melanoma cells and human lung cancer cells; FIG. 7C
Experimental: as §1

B1: p251: c-erbB-2 genomic region −213/+38, SEQ ID NO: 9 (nucleic acid, listed as Homo sapiens)
DNA: GGCAACCCAGGCGTCCCGGCGCTAGGAGGGACGACCCAGGCCTGCGCGAAGAGAGGGAGAAAGTGAAGCTGGGAGTTGCCGACTCCCAGACTTCGTTGGAATGCAGTTGGAGGGGGCGAGCTGGGAGCGCGCTTGCTCCCAATCACAGGAGAAGGAGGAGGTGGAGGAGGAGGGCTGCTTGAGGAAGTATAAGAATGAAGTTGTGAAGCTGAGATTCCCCTCCATTGGGACCGGAGAAACCAGGGGAGCCC
[1]
  promoter activity compared with SV40 promoter: lower than the SV40 promoter
  transcription activity compared with other c-erbB-2 promoter fragments: low compared with the p344 promoter and with the p533 promoter
[2]
  sensitivity to GCV of cells expressing HSV-TK under the promoter: greater sensitivity to GCV than the parent strain
[3]
  sensitivity to GCV of cells expressing HSV-TK under the promoter: very weak compared with of the parent strain
[4]
  promoter activity compared with promoter of SV40 virus: more potent than the promoter of SV40 virus
  transcription activity compared with other c-erbB-2 promoter fragments: higher transcription activity than the p533 promoter
[5]
  transcription activity compared with SV40 promoter: lower than the SV40 promoter
  transcription activity compared with p533 promoter: about the same as that of p533 promoter
